Data reported in PMC3448610.

Tests used:
[1] = target: T1, wild-type human Macrophage Migration Inhibitory Factor (human), P14174; test: static light scattering (multi-angle); purified MIF 20-30 µM in PBS 1X, room temperature, DAWN HELEOS II with UV and refractive index detectors; oligomeric state of the protein with itself; settings: remark: other sources report otherwise
T1 chain: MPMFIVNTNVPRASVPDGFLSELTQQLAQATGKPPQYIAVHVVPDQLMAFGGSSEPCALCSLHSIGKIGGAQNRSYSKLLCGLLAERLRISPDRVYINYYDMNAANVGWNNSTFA

[2] = target: T1, wild-type human Macrophage Migration …; test: AUC; sedimentation velocity, 50,000 rpm, 20°C, PBS 1X pH 7.4, protein 5-50 µM (15 µM in Figure 3); c(s) analysis with SEDFIT; oligomeric state of the protein with itself; settings: remark: other sources report otherwise

B1: wild-type human Macrophage Migration Inhibitory Factor, P14174 1-115 (natural protein)
chain: T1 chain
- stoichiometry N [1]: 3
- stoichiometry N [2]: 3
